Publication PMC9445877, “Blockade of TMPRSS2-mediated priming of SARS-CoV-2 by lactoferricin” (Frontiers in Immunology, 2022)
“Also recorded” adds a separate entry of the source.

Assays:
[1] = test system: SARS-CoV-2 infection, Calu-3 cells; type: cell-based, SARS-CoV-2 (human cells); details: concentration not given, pre-incubation approx. 1 h, four independent experiments
plasminogen = details: cited from earlier work
From the text: Since structures of the catalytic domains of serine proteases display a high level of identity ([10]), we have tested the inhibitory effect of LF and three LF-derived synthetic peptides against other serine proteases, including TMPRSS2, elastase and trypsin, in addition to plasmin. […] In contrast, uPA-independent Plg conversion by the bacterial enzyme streptokinase was not affected by LF ([11]). […] Similarly, only pLF1 but neith ...

SARS-CoV-2 [2] = details: cited from earlier work
SARS-CoV-2 [3] = details: cited from earlier work; remark: listed apart in the source
From the text: (§1) The human glycoprotein LF is synthetized by exocrine glands and is present at high concentrations in secretory body fluids, particularly in milk, but also within inflammatory granules of neutrophils. […] This effect was mainly attributed to its immunomodulatory properties ([26]).

COVID-19 = details: supplementary LF treatment; cited from earlier work
From the text: as §1

[4] = cited from earlier work
SARS-CoV-2 [5] = type: cell-based; details: summary statement
plasmin = target: T1, plasmin (Homo sapiens, UniProt P00747); experiment: In vitro proteolysis assay, plasmin; type: biochemical; details: 37°C
T1 construct: purchased Roche Diagnostics GmbH, Mannheim, Germany #10602361001; host or cells: human plasma
Experimental: (§2) Figure 1 Effect of LF and the LF-derived peptides pLF1-pLF3 on the activity of serine proteases. Proteolytic activities of purified TMPRSS2 (A), plasmin (B), elastase (C), and trypsin (D) were measured with or without peptides pLF1, pLF2, pLF3, LF or the control peptide pCTR at 37°C in Tris-HCl buffer using the fluorogenic substrate Boc-Gln-Ala-Arg-AMC. The reaction was monitored using an ELISA reader for the indicated time intervals.
The proteolytic activities of plasmin (10 nM; from human plasma; #10602361001, Roche Diagnostics GmbH, Mannheim, Germany), trypsin (10 nM; from bovine pancreas; #T1005, Sigma-Aldrich, St. Louis, MO), elastase (20 nM; from porcine pancreas; #E1250, Sigma-Aldrich) and TMPRSS2 (25 nM; recombinant protein produced in mammalian cells; #MBS1193731, MyBioSource, San Diego, CA) were measured in a Nunc black fluorescence-based cell assay plate (Sigma-Aldrich) in Tris-HCl buffer (20 mM, pH 8.0, 150 mM NaCl). […] The reaction was measured using an ELISA plate reader (Synergy H1 BioTek microplate reader, Winooski, Vermont, U.S., or TECAN GENios, GMI, USA) under the excitation wavelength of 380 nm and the emission wavelength of 460 nm at the indicated time points. […]

[6] = test system: SARS-CoV-2 infection, Vero cells; type: cell-based, SARS-CoV-2 (African green monkey cells); details: 40 µg/mL, pre-incubation 40-60 min, mean of three independent experiments
[7] = cited from earlier work; remark: listed apart in the source
elastase = experiment: In vitro proteolysis assay, elastase; type: biochemical, porcine; details: elastase 20 nM; 37°C, Tris-HCl buffer, Boc-Gln-Ala-Arg-AMC
Experimental: as §2
(§3) The proteolytic activities of plasmin (10 nM; from human plasma; #10602361001, Roche Diagnostics GmbH, Mannheim, Germany), trypsin (10 nM; from bovine pancreas; #T1005, Sigma-Aldrich, St. Louis, MO), elastase (20 nM; from porcine pancreas; #E1250, Sigma-Aldrich) and TMPRSS2 (25 nM; recombinant protein produced in mammalian cells; #MBS1193731, MyBioSource, San Diego, CA) were measured in a Nunc black fluorescence-based cell assay plate (Sigma-Aldrich) in Tris-HCl buffer (20 mM, pH 8.0, 150 mM NaCl). […] The reaction was measured using an ELISA plate reader (Synergy H1 BioTek microplate reader, Winooski, Vermont, U.S., or TECAN GENios, GMI, USA) under the excitation wavelength of 380 nm and the emission wavelength of 460 nm at the indicated time points.

SARS-CoV-1 = details: cited from earlier work
TMPRSS2 = target: T2, TMPRSS2 (Homo sapiens, UniProt O15393); experiment: In vitro proteolysis assay, TMPRSS2, fluorogenic substrate Boc-Gln-Ala-Arg-AMC; type: biochemical
T2 construct: TMPRSS2 (25 nM; recombinant protein produced in mammalian cells; #MBS1193731, MyBioSource, San Diego, CA); purchased MyBioSource, San Diego, CA #MBS1193731; host or cells: mammalian cells
Experimental: as §2, §3

T2 sequence (O15393 256-492 limits assumed): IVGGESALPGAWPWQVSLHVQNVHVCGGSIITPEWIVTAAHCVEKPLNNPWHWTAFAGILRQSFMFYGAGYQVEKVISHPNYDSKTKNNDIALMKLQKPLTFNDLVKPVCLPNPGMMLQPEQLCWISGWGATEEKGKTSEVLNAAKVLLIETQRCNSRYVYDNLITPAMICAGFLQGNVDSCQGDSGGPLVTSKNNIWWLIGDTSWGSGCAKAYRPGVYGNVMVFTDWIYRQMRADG
T2 sequence (O15393 106-255 limits assumed): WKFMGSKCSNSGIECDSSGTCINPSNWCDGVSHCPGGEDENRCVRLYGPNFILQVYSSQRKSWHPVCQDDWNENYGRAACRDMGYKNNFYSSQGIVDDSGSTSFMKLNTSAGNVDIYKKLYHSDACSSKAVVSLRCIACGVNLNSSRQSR
T1 sequence (P00747 581-810 limits assumed): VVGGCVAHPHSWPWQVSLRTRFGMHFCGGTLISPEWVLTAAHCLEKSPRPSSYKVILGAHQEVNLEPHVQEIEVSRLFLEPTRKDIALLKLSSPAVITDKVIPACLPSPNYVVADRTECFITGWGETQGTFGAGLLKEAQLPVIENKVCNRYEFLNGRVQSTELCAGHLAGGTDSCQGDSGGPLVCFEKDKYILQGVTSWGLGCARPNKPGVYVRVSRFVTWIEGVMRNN
T1 sequence (P00747 97-580 limits assumed): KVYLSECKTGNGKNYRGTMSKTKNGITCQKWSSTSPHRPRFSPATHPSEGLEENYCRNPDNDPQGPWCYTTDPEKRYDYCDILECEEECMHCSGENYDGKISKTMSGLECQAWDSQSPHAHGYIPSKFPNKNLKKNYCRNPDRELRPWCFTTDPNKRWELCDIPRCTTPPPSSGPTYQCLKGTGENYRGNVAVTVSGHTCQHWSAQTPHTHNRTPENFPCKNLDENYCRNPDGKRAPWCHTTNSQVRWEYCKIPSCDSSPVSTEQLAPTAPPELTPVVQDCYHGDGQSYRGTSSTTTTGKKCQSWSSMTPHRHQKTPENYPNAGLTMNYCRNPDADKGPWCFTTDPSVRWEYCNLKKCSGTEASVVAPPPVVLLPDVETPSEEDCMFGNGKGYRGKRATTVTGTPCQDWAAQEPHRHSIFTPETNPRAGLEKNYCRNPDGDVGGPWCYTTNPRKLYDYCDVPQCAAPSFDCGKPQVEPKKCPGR

B1: LF: human milk glycoprotein lactoferrin; recombinant human LF (L1294, Sigma-Aldrich) (protein, UniProt P02788 1-710, looked up)
chain: MKLVFLVLLFLGALGLCLAGRRRSVQWCAVSQPEATKCFQWQRNMRKVRGPPVSCIKRDSPIQCIQAIAENRADAVTLDGGFIYEAGLAPYKLRPVAAEVYGTERQPRTHYYAVAVVKKGGSFQLNELQGLKSCHTGLRRTAGWNVPIGTLRPFLNWTGPPEPIEAAVARFFSASCVPGADKGQFPNLCRLCAGTGENKCAFSSQEPYFSYSGAFKCLRDGAGDVAFIRESTVFEDLSDEAERDEYELLCPDNTRKPVDKFKDCHLARVPSHAVVARSVNGKEDAIWNLLRQAQEKFGKDKSPKFQLFGSPSGQKDLLFKDSAIGFSRVPPRIDSGLYLGSGYFTAIQNLRKSEEEVAARRARVVWCAVGEQELRKCNQWSGLSEGSVTCSSASTTEDCIALVLKGEADAMSLDGGYVYTAGKCGLVPVLAENYKSQQSSDPDPNCVDRPVEGYLAVAVVRRSDTSLTWNSVKGKKSCHTAVDRTAGWNIPMGLLFNQTGSCKFDEYFSQSCAPGSDPRSNLCALCIGDEQGENKCVPNSNERYYGYTGAFRCLAENAGDVAFVKDVTVLQNTDGNNNEAWAKDLKLADFALLCLDGKRKPVTEARSCHLAMAPNHAVVSRMDKVERLKQVLLHQQAKFGRNGSDCPDKFCLFQSETKNLLFNDNTECLARLHGKTTYEKYLGPQYVAGITNLKKCSTSPLLEACEFLRK
modifications: full-length
inhibition of SARS-CoV-2 infection, Calu-3 cells [1]: 60-70%
binding to plasminogen (in words) (plasminogen): binds to Plg via its highly cationic N-terminal region; also recorded: bound to Plg via its highly cationic N-terminal region
inhibition of plasminogen conversion to plasmin (in words) (plasminogen): able to inhibit activation of Plg through hindering the action of urokinase-type plasminogen activator (uPA); also recorded: blocked Plg conversion to the active serine protease plasmin
uPA-independent plasminogen conversion by streptokinase (in words) (plasminogen; streptokinase as activator): not affected
interferon responses (in words) (SARS-CoV-2 [2]): enhancement of interferon responses
iron homeostasis (in words) (SARS-CoV-2 [2]): maintenance of iron homeostasis
viral replication (in words) (SARS-CoV-2 [2]): inhibition of viral replication
SARS-CoV-2 infection in vitro (in words) (SARS-CoV-2 [3]): found to inhibit SARS-CoV-2 infection in vitro
COVID-19 symptoms in clinical study (in words) (COVID-19): significantly reduced COVID-19 symptoms
clinical benefit, oral (in words) ([4]; in vivo, po): major clinical benefit in human, particularly neonatal medicine
safety, oral (in words) ([4]; orally administered): considered safe and without adverse effects
SARS-CoV-2 infection of permissive cells (in words) (SARS-CoV-2 [5]): prevented SARS-CoV-2 infection
dose dependence of inhibition of active plasmin (in words) (plasmin; Figure 1B inset: S-2251 in PBS): no dose-dependent inhibition; also recorded: not by LF
inhibition of proteolytic activity of plasmin (in words) (plasmin; plasmin 10 nM, Tris-HCl buffer, Boc-Gln-Ala-Arg-AMC): neither full-length LF nor a control peptide (pCTR), was able to inhibit; also recorded: neither full-length LF nor other tested peptides derived from LF, nor the control peptide pCTR, significantly reduced
inhibition of SARS-CoV-2 infection, Vero cells, 40 µg/mL [6]: ≈ 38%
binding to heparin and HSPGs (in words) [7]: LF binding to both heparin and HSPGs was observed
inhibition of proteolytic activity of elastase (in words) (elastase): neither full-length LF nor other tested peptides derived from LF, nor the control peptide pCTR, significantly reduced
SARS-CoV-1 infection (in words) (SARS-CoV-1): inhibited the SARS-CoV-1 infection
inhibition of proteolytic activity of TMPRSS2 (in words) (TMPRSS2; 37°C, Tris-HCl buffer, Boc-Gln-Ala-Arg-AMC): not able to block TMPRSS2 activity; also recorded: neither full-length LF nor pCTR inhibited; also recorded: did not block TMPRSS2 activity; also recorded: neither full-length LF nor other tested peptides derived from LF, nor the control peptide pCTR, significantly reduced
dose dependence of inhibition of TMPRSS2 (in words) (TMPRSS2; Figure 1A inset): no dose-dependent inhibition; also recorded: not by LF
